Entries after “also recorded” stand apart in the source; their conditions may differ.
Columns and labels:
[1] = tested on: CXCR3 expression on CD8+ T cells; assay: CXCR3 expression on CD8+ T cells of activated PBMCs (flow cytometry); type: cell-based, human; settings: 3 individual donors
Protocol: Materials and methods: PBMCs from healthy adult donors were isolated from whole blood using Ficoll-Paque density gradient centrifugation. PBMCs were cultured in a humidified 37° C. incubator for 24 hours in RPMI-1640 culture medium supplemented with 5% human serum, and standard antibiotics, 2-ME and HEPES. PBMCs were then seeded at 1×10^6 cells/well with 1 mL fresh culture medium/well in a 24-well plate and stimulated by mixing cells with human T cell TransAct (1:200). Antibodies indicated in the Results were then added and mixed well. After 2 days of culture, PBMCs were collected, washed with PBS three times, re-suspended in culture medium and re-cultured with indicated antibodies for an additional 2 days.
PBMCs were treated as required (see above) and then harvested for flow cytometry antibody staining, using anti-human CD4, anti-human CD8, anti-human CD56 and anti-human CXCR3 antibodies for 30 minutes on ice in the dark. PBMCs were then washed twice with FACS buffer and the expression of CXCR3 determined by flow cytometry using an Attune NxT flow cytometry. Flow cytometry data analysis was performed using FlowJo software.

primary melanocytes = assay: Melanocyte cell viability after IFN-γ, chemokines, cell death inhibitors or 2A6Q, Day 2 and Day 7; type: cell-based, human; settings: melanocytes with IFN-γ, up to seven days; listed as 2A6Q
Protocol: To determine cell viability of melanocyte after treatment with IFN-γ, CXCL9, CXCL10, CXCL11, at Day 2, and Day 7, the cells were collected and seeded into 96-well plates. After adhesion, cells were treated with IFN-γ (0, 10, 100 ng/ml) with different compounds: 2A6Q, CXCL9, CXCL10, CXCL11, ROS scavenger (NAC), necroptosis inhibitor (NEC-1), pyroptosis inhibitor (VX-765), apoptosis inhibitor (QVD-OPH), Ferroptosis inhibitor (Liproxstaitin-1, Ferrostatin-1, DFO). Cell viability was measured using a CellTiter-Glo luminescent cell viability assay kit (Promega) according to the manufacturer's protocol. The […] of the final reaction product was measured using a luminometer (SpectraMax® iD3 Multi-Mode Microplate Reader (Molecular Devices). After calculation, the viability of control cells was 100%, and all others were normalized to control and shown as relative cell viability (%). Treatment dosage N-acetylcysteine (NAC; 0.05 mM, 1 mM), Necrostatin-1 (NEC-1; 20 μM, 2 μM), Belnacasan (VX-765; 50 μg/mL, 5 μg/mL), Quinoline-Val Asp-Difluorophenoxymethylketone (QVD-OPH; 10 μM, 2 μM), Liproxstaitin-1 (10 μM, 5 μM, 1 μM, 0.05 μM), Ferrostatin-1 (5 μM, 1 μM), Deferoxamine (DFO; 10 μM, […], 1 μM, 0.05 μM), 2A6Q (10 μg/mL), CXCL9 (10 ng/mL, 10 pg/mL), CXCL10 (10 ng/ml, 10 pg/mL), CXCL11(10 ng/mL, 10 pg/mL).

MITF = assay: Melanin regulators in melanocytes (RNA sequencing, MITF immunoblot); type: cell-based, human; settings: melanocytes
From the text: (§1) Total RNA was extracted from melanocytes with an RNA purification kit (Zymo Research, r2050). After RNA samples were extracted from primary melanocytes and melanocytes cell line (Gibco), the samples were sent to Biotools Co., Ltd Taiwan for RNA sequence. The RNA quality was examined by Agilent Technologies 2100 Bio-analyzer with an RNA integrity value greater than 8. After rRNA depletion (Epicenter), RNA fragmentation, and library preparation (Illumina), the constructed libraries were then performed 150 bp paired-end sequencing by an Illumina NovaSeq6000 sequencer. The results from each sample were aligned to the GRCh38 genome by the HISAT2 software and analyzed by Biotools Co., Ltd Taiwan.
(§2) Cells were washed in PBS and lysed in RIPA lysis buffer with proteases inhibitor and Phenylmethanesulfonyl fluoride (PMSF; Sigma-Aldrich, P7626). The total cell lysates were sonicated and centrifuged at 4° C., 13000 rpm for 30 min. Protein concentration was quantified using the Bradford assay. The total cell lysates were separated by SDS-PAGE and transferred to a PVDF membrane. The membrane was blocked with 5% BSA or 5% milk in TBST for 1 hour at room temperature and incubated with primary antibodies overnight at 4° C. and HRP-conjugated secondary antibodies for hour at room temperature. The protein was visualized by Thermo ibright1500. Primary antibodies were follows: anti-human SLC7A11 (CST, 12691), anti-human SLC3A2 (CST, 13180), anti-IRF1 (CST, 8478), anti-MITF (CST, 12590), and anti-GAPDH (Abcam, ab8245).

SLC7A11 = assay: Ferroptosis regulators in melanocytes (RNA sequencing, SLC7A11 immunoblot); type: cell-based, human; settings: melanocytes
From the text: as §1, §2

melanocytes [2] = assay: Lipid peroxidation in melanocytes (BODIPY 581/591 C11); type: cell-based, human; settings: melanocytes
Protocol: For lipid peroxidation examination, melanocyte cells were seeded in a 6-well plate and treated with IFN-γ the next day. Melanocytes were washed with PBS and incubated with Hanks balanced salt solution (HBSS, Gibco) containing 5 μM BODIPY 581/591 C11 (Invitrogen, D3861) and incubated for 15 minutes at 37° C. in a tissue culture incubator. The cells were resuspended with fresh HBSS and examined with flow cytometry; the data were analyzed with FlowJo.

[3] = 4-week repeated intravenous infusion GLP toxicology of EI-001; type: in vivo
Protocol: Materials and methods: A total of forty Cynomolgus monkeys (20 females and 20 males) were assigned into 4 groups with 5 animals/gender/group and given EI-001 (2A6Q) (10, 30 and 100 mg/kg) or vehicle (Formulation Buffer) in a volume of 10 mL/kg via 30-min intravenous infusion, once weekly for a total of 5 doses, followed by a 6-week recovery phase. All animals were scheduled to be necropsied at the end of main phase (on Day 30) and at the end of recovery phase (on Day 72). During the study, the following parameters were evaluated: clinical observations, ophthalmology, body weight, food consumption, body temperature (rectal temperature), clinical pathology (hematology, coagulation, plasma chemistry, lymphocyte immunophenotype and urinalysis), gross pathology, organ weight and histopathology. toxicokinetics, immunogenicity, local irritation assessment, cardiovascular (ECG, body surface temperature, blood pressure), respiratory and central nervous system safety pharmacology assessments were conducted concurrently. […] The immunogenicity samples were collected on pre-dose on Days 1, 15, 22, and Days 57, 71.

melanocytes [4] = assay: Melanocyte apoptosis, Annexin V / 7AAD flow cytometry; type: cell-based, human; settings: 2A6Q 10 μg/mL
Protocol: Materials and methods: Melanocyte cell apoptosis was detected with Annexin V (BD, 550474) and 7AAD (1 mg/mL, Sigma A9400-1 MG). The cells were detached and resuspended with […] binding buffer (BD, 556454) containing Annexin V and 7AAD for 15 min at room temperature in the dark. Before analysis, cells were added to a […] binding buffer and immediately analyzed a on a flow cytometer (Verse BD).

B1: EI-001: human monoclonal anti-IFN-γ neutralizing antibody; VH SEQ ID NO: 165, VL SEQ ID NO: 113; N76Q removes VH glycosylation site (antibody, listed as Homo sapiens, V domains shown)
VH: EVQLVESGGGLVKPGDSLTVSCVASGFTFSNYFIHWVRQAPGKGLEWVATISGRTKYMFYSDSLRGRFTVSRDNAQNSVYLHMSSLRGEDTALYYCVRGYDHSDSNSAADLLHWGRGTLVTVSS
VL: NFMLTQPLSVSGYPGKTIVISCVRSSGSVASHYVQWFQQRPGSAPAMVIYEDSHRPSGIPDRFSGSVDASSNSASLTISGLKTEDEADYFCQSYYGNNQVLFGGGTKLTVL
modifications: Recombinant variant antibody sequence
notes: human monoclonal anti-IFN-γ neutralizing antibody; N76Q removes VH glycosylation site
[1]
  IC50 of EI-001 to inhibit CXCR3 expression on CD8+ T cells: 1.029 to 6.941 µg/mL
Primary melanocytes
  rescue of IFN-γ induced melanocyte cell death (cell viability): more profound than all other cell death inhibitors; also recorded: rescue cell viability of melanocyte in a time-dependent manner
MITF
  reversal of IFN-γ induced downregulation of MITF: reverses
SLC7A11
  reversal of ferroptosis as demonstrated by SLC7A11: reverses ferroptosis
Melanocytes [2]
  reversal of IFN-γ induced lipid peroxidation: reverses
[3]; 10, 30 and 100 mg/kg once weekly
  survival of treated animals: survived to their scheduled necropsy
[3]; 10, 30 and 100 mg/kg once weekly, 5 doses
  tolerability after repeated intravenous infusion for 4 weeks: well-tolerated
[3]; compared to prior NI-0501 toxicology studies
  mortality rates or susceptibility to infections among the treated monkeys: did not increase
[3]; cynomolgus monkey, in vivo
  drug adverse events in in vivo toxicology: does not cause any significant drug adverse events
  observable symptoms of infection: did not induce
  only detected changes related to administration: seen on a microscopic level
Melanocytes [4]
  reversal of IFN-γ induced early phase apoptosis: managed to reverse the apoptosis; also recorded: reverses
